From PMC9352680, “A comprehensive thermodynamic model for RNA binding by the Saccharomyces cerevisiae Pumilio protein PUF4”

T1: PUF4 RNA-binding domain (Saccharomyces cerevisiae, UniProt P25339 537-888)
T1 sequence: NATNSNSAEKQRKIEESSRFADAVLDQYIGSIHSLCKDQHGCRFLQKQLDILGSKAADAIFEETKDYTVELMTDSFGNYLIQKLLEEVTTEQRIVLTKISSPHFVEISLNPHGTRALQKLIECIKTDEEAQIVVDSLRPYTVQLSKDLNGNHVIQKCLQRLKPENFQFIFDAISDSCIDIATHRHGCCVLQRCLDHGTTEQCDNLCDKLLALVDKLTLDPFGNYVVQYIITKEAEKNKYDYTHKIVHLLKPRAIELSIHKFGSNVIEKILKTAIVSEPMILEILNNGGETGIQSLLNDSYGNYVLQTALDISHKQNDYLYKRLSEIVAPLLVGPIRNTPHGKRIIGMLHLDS


Biological target: T1, PUF4 RNA-binding domain
Assay: Mg; RNA-MaP; 20 mM Na-HEPES pH 7.4, 30 mM KOAc, 0.75 mM MgCl2, 0.1% Tween-20, 5% glycerol, 0.1 mg/mL BSA, 2 mM DTT; 25 C; 0.0125-409.6 nM protein
Conditions: tags: N-His6-TEV cleaved; C-SNAP kept, Cy3B-labelled; label: tethered on chip by stalled RNA polymerase

Binder | Kd [nM]
UCUCUUCCUAUAUAUUAAAUCUCUU (ssRNA) [Id_ii_S1_P4E.3_K4.2_C4.2_[T-1C]_H4.2_A4.1_F4.1_T4.2_[G10A]_[T11A]] | 30.4
UCUCUUCCUAUAUAUUAAUUCUCUU (ssRNA) [Id_ii_S1_P4E.3_K4.2_C4.2_[T-1C]_H4.2_A4.1_F4.1_T4.2_[G10A]] | 27.1
UCUCUUUGUGUAGUAUCUCUU (ssRNA) [Ib_S1_P4E.1_K4.1_C4.1_H4.1_[A4G]_A4.1_[T7G]_F4.1_T4.1] | 18.3
UCUCUUCAUAUAUAUUACGUCUCUU (ssRNA) [Id_ii_S1_P4E.3_K4.2_C4.2_[T-1A]_H4.2_A4.1_F4.1_T4.2_[G10C]_[T11G]] | 34.8
UCUCUUCAUAUAUAUUACAUCUCUU (ssRNA) [Id_ii_S1_P4E.3_K4.2_C4.2_[T-1A]_H4.2_A4.1_F4.1_T4.2_[G10C]_[T11A]] | 27.8
UCUCUUCAUAUAUAUUACUUCUCUU (ssRNA) [Id_ii_S1_P4E.3_K4.2_C4.2_[T-1A]_H4.2_A4.1_F4.1_T4.2_[G10C]] | 21
UCUCUUCAUAUAUAUUAUCUCUCUU (ssRNA) [Id_ii_S1_P4E.3_K4.2_C4.2_[T-1A]_H4.2_A4.1_F4.1_T4.2_[G10T]_[T11C]] | 25
UCUCUUCAUAUAUAUUAUUUCUCUU (ssRNA) [Id_ii_S1_P4E.3_K4.2_C4.2_[T-1A]_H4.2_A4.1_F4.1_T4.2_[G10T]] | 21.2
UCUCUUCAUAUAUAUUAACUCUCUU (ssRNA) [Id_ii_S1_P4E.3_K4.2_C4.2_[T-1A]_H4.2_A4.1_F4.1_T4.2_[G10A]_[T11C]] | 39.7
UCUCUUCAUAUAUAUUAAUUCUCUU (ssRNA) [Id_ii_S1_P4E.3_K4.2_C4.2_[T-1A]_H4.2_A4.1_F4.1_T4.2_[G10A]] | 36.3
UCUCUUCAUAUAUAUUAGGUCUCUU (ssRNA) [Id_ii_S1_P4E.3_K4.2_C4.2_[T-1A]_H4.2_A4.1_F4.1_T4.2_[T11G]] | 18.2
UCUCUUCAUAUAUAUUAGCUCUCUU (ssRNA) [Id_ii_S1_P4E.3_K4.2_C4.2_[T-1A]_H4.2_A4.1_F4.1_T4.2_[T11C]] | 8.31
UCUCUUCAUAUAUAUUAGAUCUCUU (ssRNA) [Id_ii_S1_P4E.3_K4.2_C4.2_[T-1A]_H4.2_A4.1_F4.1_T4.2_[T11A]] | 19.9
UCUCUUUGUGUACUAUCUCUU (ssRNA) [Ib_S1_P4E.1_K4.1_C4.1_H4.1_[A4G]_A4.1_[T7C]_F4.1_T4.1] | 6.14
UCUCUUCAUAUAUAUUAGUUCUCUU (ssRNA) [Id_ii_S1_P4E.3_K4.2_C4.2_[T-1A]_H4.2_A4.1_F4.1_T4.2] | 8.18
UCUCUUCUUAUAUAUUACGUCUCUU (ssRNA) [Id_ii_S1_P4E.3_K4.2_C4.2_H4.2_A4.1_F4.1_T4.2_[G10C]_[T11G]] | 16.6
UCUCUUCUUAUAUAUUACAUCUCUU (ssRNA) [Id_ii_S1_P4E.3_K4.2_C4.2_H4.2_A4.1_F4.1_T4.2_[G10C]_[T11A]] | 13.5
UCUCUUCUUAUAUAUUACUUCUCUU (ssRNA) [Id_ii_S1_P4E.3_K4.2_C4.2_H4.2_A4.1_F4.1_T4.2_[G10C]] | 18.3
UCUCUUCUUAUAUAUUAUGUCUCUU (ssRNA) [Id_ii_S1_P4E.3_K4.2_C4.2_H4.2_A4.1_F4.1_T4.2_[G10T]_[T11G]] | 12.2
UCUCUUCUUAUAUAUUAUCUCUCUU (ssRNA) [Id_ii_S1_P4E.3_K4.2_C4.2_H4.2_A4.1_F4.1_T4.2_[G10T]_[T11C]] | 13.9
UCUCUUCUUAUAUAUUAUAUCUCUU (ssRNA) [Id_ii_S1_P4E.3_K4.2_C4.2_H4.2_A4.1_F4.1_T4.2_[G10T]_[T11A]] | 27.7

Binder | Kd [nM]
UCUCUUCUUAUAUAUUAUUUCUCUU (ssRNA) [Id_ii_S1_P4E.3_K4.2_C4.2_H4.2_A4.1_F4.1_T4.2_[G10T]] | 15.7
UCUCUUCUUAUAUAUUAAAUCUCUU (ssRNA) [Id_ii_S1_P4E.3_K4.2_C4.2_H4.2_A4.1_F4.1_T4.2_[G10A]_[T11A]] | 43.5
UCUCUUCUUAUAUAUUAAUUCUCUU (ssRNA) [Id_ii_S1_P4E.3_K4.2_C4.2_H4.2_A4.1_F4.1_T4.2_[G10A]] | 18.9
UCUCUUUGUAUAUCUCUCUU (ssRNA) [Ia_S1_P3E.1_K3.1_C3.1_H3.1_A3.1_F3.1_[A8C]_T3.1] | 14.8
UCUCUUUGUAUUACUAUCUCUU (ssRNA) [Ia_S1_P5E.1_K5.1_C5.1_H5.1_A5.1_F5.1_[T8C]_T5.1] | 9.98
UCUCUUUGUGUAAUAUCUCUU (ssRNA) [Ib_S1_P4E.1_K4.1_C4.1_H4.1_[A4G]_A4.1_[T7A]_F4.1_T4.1] | 10.4
UCUCUUCUUAUAUAUUAGCUCUCUU (ssRNA) [Id_ii_S1_P4E.3_K4.2_C4.2_H4.2_A4.1_F4.1_T4.2_[T11C]] | 7.8
UCUCUUCUUAUAUAUUAGUUCUCUU (ssRNA) [If_S1_P4E.3_K4.2_C4.2_H4.2_A4.1_F4.1_T4.2] | 7.55
UCUCUUGCACACUAUUACGUCUCUU (ssRNA) [Id_ii_S1_P4E.4_K4.3_C4.2_[C-2G]_[T-1C]_H4.3_A4.1_F4.1_T4.2_[G10C]_[T11G]] | 408
UCUCUUGCACACUAUUACAUCUCUU (ssRNA) [Id_ii_S1_P4E.4_K4.3_C4.2_[C-2G]_[T-1C]_H4.3_A4.1_F4.1_T4.2_[G10C]_[T11A]] | 99.1
UCUCUUGCACACUAUUACUUCUCUU (ssRNA) [Id_ii_S1_P4E.4_K4.3_C4.2_[C-2G]_[T-1C]_H4.3_A4.1_F4.1_T4.2_[G10C]] | 74.1
UCUCUUGCACACUAUUAUCUCUCUU (ssRNA) [Id_ii_S1_P4E.4_K4.3_C4.2_[C-2G]_[T-1C]_H4.3_A4.1_F4.1_T4.2_[G10T]_[T11C]] | 91.3
UCUCUUGCACACUAUUAUAUCUCUU (ssRNA) [Id_ii_S1_P4E.4_K4.3_C4.2_[C-2G]_[T-1C]_H4.3_A4.1_F4.1_T4.2_[G10T]_[T11A]] | 351
UCUCUUGCACACUAUUAUUUCUCUU (ssRNA) [Id_ii_S1_P4E.4_K4.3_C4.2_[C-2G]_[T-1C]_H4.3_A4.1_F4.1_T4.2_[G10T]] | 71
UCUCUUGCACACUAUUAACUCUCUU (ssRNA) [Id_ii_S1_P4E.4_K4.3_C4.2_[C-2G]_[T-1C]_H4.3_A4.1_F4.1_T4.2_[G10A]_[T11C]] | 69.5
UCUCUUGCACACUAUUAAAUCUCUU (ssRNA) [Id_ii_S1_P4E.4_K4.3_C4.2_[C-2G]_[T-1C]_H4.3_A4.1_F4.1_T4.2_[G10A]_[T11A]] | 131
UCUCUUUGUCUAAUAUCUCUU (ssRNA) [Ib_S1_P4E.1_K4.1_C4.1_H4.1_[A4C]_A4.1_[T7A]_F4.1_T4.1] | 83.9
UCUCUUGCACACUAUUAAUUCUCUU (ssRNA) [Id_ii_S1_P4E.4_K4.3_C4.2_[C-2G]_[T-1C]_H4.3_A4.1_F4.1_T4.2_[G10A]] | 93.8
UCUCUUGCACACUAUUAGUUCUCUU (ssRNA) [Id_ii_S1_P4E.4_K4.3_C4.2_[C-2G]_[T-1C]_H4.3_A4.1_F4.1_T4.2] | 347
UCUCUUGUACACUAUUACCUCUCUU (ssRNA) [Id_ii_S1_P4E.4_K4.3_C4.2_[C-2G]_H4.3_A4.1_F4.1_T4.2_[G10C]_[T11C]] | 0.615
UCUCUUGUACACUAUUAUCUCUCUU (ssRNA) [Id_ii_S1_P4E.4_K4.3_C4.2_[C-2G]_H4.3_A4.1_F4.1_T4.2_[G10T]_[T11C]] | 0.681

Binder | Kd [nM]
UCUCUUGUACACUAUUAUAUCUCUU (ssRNA) [Id_ii_S1_P4E.4_K4.3_C4.2_[C-2G]_H4.3_A4.1_F4.1_T4.2_[G10T]_[T11A]] | 1.07
UCUCUUGUACACUAUUAUUUCUCUU (ssRNA) [Id_ii_S1_P4E.4_K4.3_C4.2_[C-2G]_H4.3_A4.1_F4.1_T4.2_[G10T]] | 0.832
UCUCUUGUACACUAUUAACUCUCUU (ssRNA) [Id_ii_S1_P4E.4_K4.3_C4.2_[C-2G]_H4.3_A4.1_F4.1_T4.2_[G10A]_[T11C]] | 0.968
UCUCUUGUACACUAUUAAAUCUCUU (ssRNA) [Id_ii_S1_P4E.4_K4.3_C4.2_[C-2G]_H4.3_A4.1_F4.1_T4.2_[G10A]_[T11A]] | 0.983
UCUCUUGUACACUAUUAAUUCUCUU (ssRNA) [Id_ii_S1_P4E.4_K4.3_C4.2_[C-2G]_H4.3_A4.1_F4.1_T4.2_[G10A]] | 1.04
UCUCUUGUACACUAUUAGCUCUCUU (ssRNA) [Id_ii_S1_P4E.4_K4.3_C4.2_[C-2G]_H4.3_A4.1_F4.1_T4.2_[T11C]] | 0.962
UCUCUUUGUUUAGUAUCUCUU (ssRNA) [Ib_S1_P4E.1_K4.1_C4.1_H4.1_[A4T]_A4.1_[T7G]_F4.1_T4.1] | 24.4
UCUCUUGUACACUAUUAGUUCUCUU (ssRNA) [Id_ii_S1_P4E.4_K4.3_C4.2_[C-2G]_H4.3_A4.1_F4.1_T4.2] | 1.27
UCUCUUUGACACUAUUACCUCUCUU (ssRNA) [Id_ii_S1_P4E.4_K4.3_C4.2_[C-2T]_[T-1G]_H4.3_A4.1_F4.1_T4.2_[G10C]_[T11C]] | > 2300
UCUCUUUGACACUAUUACAUCUCUU (ssRNA) [Id_ii_S1_P4E.4_K4.3_C4.2_[C-2T]_[T-1G]_H4.3_A4.1_F4.1_T4.2_[G10C]_[T11A]] | > 2300
UCUCUUUGACACUAUUACUUCUCUU (ssRNA) [Id_ii_S1_P4E.4_K4.3_C4.2_[C-2T]_[T-1G]_H4.3_A4.1_F4.1_T4.2_[G10C]] | > 2300
UCUCUUUGACACUAUUAUCUCUCUU (ssRNA) [Id_ii_S1_P4E.4_K4.3_C4.2_[C-2T]_[T-1G]_H4.3_A4.1_F4.1_T4.2_[G10T]_[T11C]] | > 2300
UCUCUUUGACACUAUUAUAUCUCUU (ssRNA) [Id_ii_S1_P4E.4_K4.3_C4.2_[C-2T]_[T-1G]_H4.3_A4.1_F4.1_T4.2_[G10T]_[T11A]] | 2180
UCUCUUUGACACUAUUAUUUCUCUU (ssRNA) [Id_ii_S1_P4E.4_K4.3_C4.2_[C-2T]_[T-1G]_H4.3_A4.1_F4.1_T4.2_[G10T]] | > 2300
UCUCUUUGACACUAUUAACUCUCUU (ssRNA) [Id_ii_S1_P4E.4_K4.3_C4.2_[C-2T]_[T-1G]_H4.3_A4.1_F4.1_T4.2_[G10A]_[T11C]] | > 2300
UCUCUUUGACACUAUUAGCUCUCUU (ssRNA) [Id_ii_S1_P4E.4_K4.3_C4.2_[C-2T]_[T-1G]_H4.3_A4.1_F4.1_T4.2_[T11C]] | > 2300
UCUCUUUCACACUAUUACCUCUCUU (ssRNA) [Id_ii_S1_P4E.4_K4.3_C4.2_[C-2T]_[T-1C]_H4.3_A4.1_F4.1_T4.2_[G10C]_[T11C]] | > 2300
UCUCUUUGUAGCUUAUCUCUU (ssRNA) [Ic_S1_P4E.1_K4.1_C4.1_H4.1_A4.1_[T5G]_[A6C]_F4.1_T4.1] | 28.6
UCUCUUUCACACUAUUACUUCUCUU (ssRNA) [Id_ii_S1_P4E.4_K4.3_C4.2_[C-2T]_[T-1C]_H4.3_A4.1_F4.1_T4.2_[G10C]] | > 2300
UCUCUUUCACACUAUUAUCUCUCUU (ssRNA) [Id_ii_S1_P4E.4_K4.3_C4.2_[C-2T]_[T-1C]_H4.3_A4.1_F4.1_T4.2_[G10T]_[T11C]] | > 2300
UCUCUUUAACACUAUUACUUCUCUU (ssRNA) [Id_ii_S1_P4E.4_K4.3_C4.2_[C-2T]_[T-1A]_H4.3_A4.1_F4.1_T4.2_[G10C]] | > 2300
